# Data as given in patent US9988424 (DUKE UNIVERSITY, dated 2018).
# Where a chain is given by its changes, count along the chain named. Like-named read-outs stand apart in the source and are kept apart here.
# B1: 697D (antibody, V domains shown)
# VH: QVQLVQSGAEVKKPGSSVKVSCKASGGNFNTYTISWVRQAPGQGLEWMGRIIPIFGIVNPAQKFPGRVTINVDKSTNTAYMELSSLRSEDTAVYYCATSGVGLHFGYFDYWGQGTQVTVSS
# VL: QSVLTQPPSVSGAPGQRVTISCTGSSSNIGAHYDVHWYQQLPGTAPKLLIYGNSNRPSGVPDRFSGSKSGTSASLAITGLQAEDEADYYCQSYDSSLSGYVFGTGTKVTVL
# notes: also called mAb 697D; V2 conformational mAb 697D
# B2: CH59 (antibody, V domains shown)
# VH: EVQLVESGGGLVQPGRSLRLSCAASGFTFDDGAMHWVRQAPGKGLEWVSGISWNSNIIAYADSVKGRFTISRDNAKNSLYLEMNSLRVEDTALYYCAKDSPRGELPLNYWGQGTLVTVSS
# VL: SYELTQPPSVSVSPGQTARITCSGDALPKNYAYWYQQKSGQAPVLVIYEDSKRPSGIPERFSGSSSGTMATLTISGAQVEDEADYYCYSTDSSGNHRVFGGGTKLTVL
# notes: also called mAb CH59
# B3: PG9 reverted unmutated ancestor antibody (antibody, V domains shown)
# VH: QVQLVESGGGVVQPGRSLRLSCAASGFTFSSYGMHWVRQAPGKGLEWVAVISYDGSNKYYADSVKGRFTISRDNSKNTLYLQMNSLRAEDTAVYYCAREAGGPDYRNGYNYYDFWSGYYNYYYMDVWGKGTTVTVSS
# VL: QSALTQPASVSGSPGQSITISCTGTSSDVGSYNLVSWYQQHPGKAPKLMIYEVSKRPSGVSNRFSGSKSGNTASLTISGLQAEDEADYYCCSLTSTRRWVFGGGTKLTVL
# notes: also called PG9 RUA; PG9_RUA
# How the values were obtained:
# gp70 B.CaseA2 V1/V2 [1] = target: T1, gp70 B.CaseA2 V1/V2 (HIV-1 V1V2 on murine leukemia virus gp70); assay: ELISA
# T1 construct: also called B.gp70CaseA2 V1/V2; gp70 B.CaseAV1V2
# T1 chain: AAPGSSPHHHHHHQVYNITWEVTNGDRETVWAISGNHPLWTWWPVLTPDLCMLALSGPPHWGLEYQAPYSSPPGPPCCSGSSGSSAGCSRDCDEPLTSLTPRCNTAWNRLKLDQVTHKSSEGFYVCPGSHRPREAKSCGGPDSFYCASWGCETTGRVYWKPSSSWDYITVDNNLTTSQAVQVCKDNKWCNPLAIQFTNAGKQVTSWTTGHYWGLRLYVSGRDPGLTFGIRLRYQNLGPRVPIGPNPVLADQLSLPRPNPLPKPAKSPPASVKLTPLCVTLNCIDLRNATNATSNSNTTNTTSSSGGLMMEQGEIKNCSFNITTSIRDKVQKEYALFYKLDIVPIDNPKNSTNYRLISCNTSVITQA
# gp70 B.HXB2/BALV1V2 = target: T2, gp70 B.HXB2/BALV1V2 (murine leukemia virus; HIV-1); assay: ELISA
# T2 chain: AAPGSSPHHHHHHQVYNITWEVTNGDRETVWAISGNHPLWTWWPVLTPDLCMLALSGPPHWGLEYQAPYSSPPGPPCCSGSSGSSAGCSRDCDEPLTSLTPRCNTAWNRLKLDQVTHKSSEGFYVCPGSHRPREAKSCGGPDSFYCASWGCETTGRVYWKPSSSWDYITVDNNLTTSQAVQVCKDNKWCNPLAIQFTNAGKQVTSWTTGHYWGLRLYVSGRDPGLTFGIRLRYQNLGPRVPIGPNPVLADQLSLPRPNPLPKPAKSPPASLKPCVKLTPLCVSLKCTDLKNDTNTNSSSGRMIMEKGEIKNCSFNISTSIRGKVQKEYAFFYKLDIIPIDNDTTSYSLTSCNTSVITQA
# [2] = target: T3, gp70 B.HXB2/BALV1V2/N156QN160Q (murine leukemia virus; HIV-1); assay: ELISA
# T3 chain: T2 chain with N311Q, N315Q
# [3] = target: T4, J08 B.HXB2/BALV1V2N156QN160Q (HIV-1); assay: ELISA
# T4 chain: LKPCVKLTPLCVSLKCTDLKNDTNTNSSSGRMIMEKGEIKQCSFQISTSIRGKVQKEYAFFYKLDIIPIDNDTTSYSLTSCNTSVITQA
# AE.A244 V1V2 Tags [4] = target: AE.A244 V1V2 Tags (HIV-1)
# gp70 B.CaseA2 V1/V2 [5] = target: T1, gp70 B.CaseA2 V1/V2; assay: SPR (BIAcore), mAb captured on anti-Fc surface, V1V2 protein injected as analyte, Synagis surface subtracted, global 1:1 Langmuir fit
# [6] = target: T5, AE.A244 V1/V2 tags, natively deglycosylated (HIV-1); assay: ELISA
# T5 construct: also called AE.A244V1V2 tags Degly
# Con 6 120 = target: T6, Con 6 120; assay: ELISA OD405nm, bar chart, antibody concentration not given
# T6 construct: also called Con 6 gp120
# B.040 gp140C = assay: as above
# A.Q23 V1V2 tags = A.Q23 V1V2 tags (HIV-1); assay: as above
# G.con 140CF = target: T7, G.con 140CF; assay: as above
# T7 construct: also called G.con gp140CF; G.con.env03 gp140CF
# D.9009SA V1V2 Tags = assay: as above
# B.63521_V1V2 Tags = assay: as above
# B.62357 140C [7] = target: T8, B.62357 140C; assay: as above
# T8 construct: also called B.62357 gp140C
# A.9004SS V1V2 Tags = target: T9, A.9004SS V1V2 Tags; assay: as above
# T9 V1V2 tags construct: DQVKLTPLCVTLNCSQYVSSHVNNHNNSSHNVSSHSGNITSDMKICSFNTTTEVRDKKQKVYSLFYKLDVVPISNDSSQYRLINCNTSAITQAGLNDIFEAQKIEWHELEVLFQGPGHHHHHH
# B.9021 gp140C = B.9021 gp140C (HIV-1); assay: as above
# AE.con env03 40CF = target: T10, AE.con env03 40CF; assay: as above
# T10 construct: also called AE.con gp140CF; AE.con.env03 gp140CF
# AE.A244 V1V2 Tags [8] = target: AE.A244 V1V2 Tags (HIV-1); remark: listed apart in the source
# B.62357 140C [9] = target: T11, B.62357 140C; assay: ELISA, OD405
# T11 construct: also called B.62357 gp140C
# AE.con gp140CF = target: T12, AE.con gp140CF; assay: ELISA, OD405
# T12 construct: also called AE.con.env03 gp140CF
# B. 684-6 gp140C = assay: ELISA, OD405
# B.63521 gp140C = assay: ELISA, OD405
# Con 6 gp120 = assay: ELISA, OD405
binder,measurement,setting,value
B1,EC50,gp70 B.CaseA2 V1/V2 [1],0.05 nM
same,EC50,gp70 B.HXB2/BALV1V2,0.64 nM
same,EC50,[2],> 667 nM
same,EC50,[3],66 nM
same,Kd,AE.A244 V1V2 Tags [4],117 nM
same,koff,AE.A244 V1V2 Tags [4],0.0024 s⁻¹
same,kon,AE.A244 V1V2 Tags [4],20000 M⁻¹ s⁻¹
same,Kd,gp70 B.CaseA2 V1/V2 [5],36.5 nM
same,koff,gp70 B.CaseA2 V1/V2 [5],0.00038 s⁻¹
same,kon,gp70 B.CaseA2 V1/V2 [5],10000 M⁻¹ s⁻¹
same,fold decrease of binding against the glycosylated protein,[6],6 fold
B2,binding result,Con 6 120,no binding (tested: not given)
same,binding result,B.040 gp140C,no binding (tested: not given)
same,binding result,A.Q23 V1V2 tags,no binding (tested: not given)
same,binding result,G.con 140CF,no binding (tested: not given)
same,binding result,D.9009SA V1V2 Tags,binds
same,binding result,B.63521_V1V2 Tags,no binding (tested: not given)
same,binding result,B.62357 140C [7],no binding (tested: not given)
same,binding result,A.9004SS V1V2 Tags,binds
same,binding result,B.9021 gp140C,no binding (tested: not given)
same,binding result,AE.con env03 40CF,binds
same,Kd,AE.A244 V1V2 Tags [8],0.48 nM
same,koff,AE.A244 V1V2 Tags [8],0.00011 s⁻¹
same,kon,AE.A244 V1V2 Tags [8],238000 M⁻¹ s⁻¹
B3,binding result,B.62357 140C [9],no binding (tested: 10 ug/ml)
same,binding result,AE.con gp140CF,no binding (tested: 10 ug/ml)
same,binding result,B. 684-6 gp140C,no binding (tested: 10 ug/ml)
same,binding result,B.63521 gp140C,no binding (tested: 10 ug/ml)
same,binding result,Con 6 gp120,no binding (tested: 10 ug/ml)
